± gives the half width of the 95% confidence interval.
Key:
[1] = folding stability dG unfold from trypsin proteolysis; higher = more stable
In short: (§1)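 Designed mini-proteins (under 80 residues, no cysteine) in a PA-tagged cDNA display construct were digested with trypsin and chymotrypsin. Each protease was used at 11 concentrations (threefold dilutions) plus a no-protease condition, followed by sequencing. K50 was inferred by Bayesian fitting of sequencing counts, and unfolding free energy was derived against a sequence-predicted unfolded-state K50 and a shared folded-state K50, per protease or combined. Only designs with AlphaFold2 dimer inter-PAE above 15 were kept.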

[2] = folding stability dG unfold (combined trypsin and chymotrypsin); higher = more stable
In short: as §1

[3] = folding stability dG unfold from chymotrypsin proteolysis; higher = more stable
In short: as §1

| Sequence | folding stability dG unfold [1] | folding stability dG unfold [2] | folding stability dG unfold [3] |
| --- | --- | --- | --- |
| SAGGSAGGSKGPVVILIFRPKYNPVKGIELEVEEVIVVSPEELSLSALGPALEEKEGYALILPSAGGSAGGS [r20_75_TrMRF] | 1.26 ± 0.015 kcal/mol | 1.37 ± 0.038 kcal/mol | 1.32 ± 0.068 kcal/mol |
| SAGGSAGGSAGGYSAIIIFPTEFDNKLYYAAVELESPSEELHEGDIKSVILAPLNTPILSAGGSAGGSAGGS [r10_730_TrMRF] | 1.93 ± 0.096 kcal/mol | 1.64 ± 0.046 kcal/mol | 1.41 ± 0.043 kcal/mol |
| SAGGSGATYLSKYEIPLPNGKKLTIIEAYKNPETDLILYIAKTDDGTEYPFVYPSSWSPEDAIKALISSAGG [r13_470_TrMRF] | 2.25 ± 0.082 kcal/mol | 2.69 ± 0.086 kcal/mol | 2.91 ± 0.034 kcal/mol |
| SADKVEIEFPMPESGHPFRIVIDKDGKVEIRHPNNGEEYEFKINGKPIRFPPNMSWDDAIDQLKDALKKSAG [r14_561_TrROS] | 0.905 ± 0.075 kcal/mol | 0.897 ± 0.19 kcal/mol | 0.645 ± 0.2 kcal/mol |
| SAGGSAGGSASKNGKELEIKIKVDIYPFPGWGIVRVDYEIEYPDGKEQKFDLWIPVPPGDASAGGSAGGSAG [r3_330_TrROS] | 1.65 ± 0.11 kcal/mol | 1.66 ± 0.17 kcal/mol | 1.64 ± 0.088 kcal/mol |
| SAGGSAGGSSMTLTTLEVNPSVTIEPQPGSIVVKTPVTTLVKAGDTLVTLESESITVLPPDLLSAGGSAGGS [r12_1023_JUSTAS] | 0.486 ± 0.048 kcal/mol | 1.03 ± 0.062 kcal/mol | 1.2 ± 0.036 kcal/mol |
| SAGGSAEPIGTLTLSFPVKVKVKDADGSIHEYDVTITVTPTVYRLPNGDLVVGLDVEIVFPDGSSLPGSAGG [r13_113_TrMRF] | 3.11 ± 0.1 kcal/mol | 4.16 ± 0.066 kcal/mol | 4.42 ± 0.065 kcal/mol |
| SAGGSAGGSAGGSRTIYEPVPPDVAGTRLITFTSPDSEPLSTRTVSVTPVPGGRGAVILGSAGGSAGGSAGG [r7_64_JUSTAS] | -0.735 ± 0.44 kcal/mol | -0.599 ± 0.23 kcal/mol | -0.918 ± 0.73 kcal/mol |
| SAGGSAGGSAGGKKTVKIEIEMPVEELLKKLKFPEGITSVRIIERDENGYLRIEIEVKLSAGGSAGGSAGGS [r10_352_TrROS_Hall] | 1.55 ± 0.05 kcal/mol | 1.31 ± 0.23 kcal/mol | 1.32 ± 0.078 kcal/mol |
| SAGEIKIKVEEVDPEKPYVRVTIEIKLEPGQSIEEALKKLLKPGVEEAKIVKVEEENGYLKIEILVRRKSAG [r5_227_TrROS_Hall] | 3.22 ± 0.14 kcal/mol | 4.01 ± 0.27 kcal/mol | 4.54 ± 0.28 kcal/mol |
| SAMRFVVRVEGDLEEVERALREEFDFEMEAEREEDGRLVVVVEAEPEELERLVEALERLPDFPVEIEPESAG [r14_521_TrMRF] | 1.01 ± 0.027 kcal/mol | 0.93 ± 0.062 kcal/mol | 0.716 ± 0.1 kcal/mol |
| SAPPDFKIKDVKVRRHPHKQEDGGKEKEFPMYHVNVRIEDPNGNKIPINFMMDDPEEMLRFARKLLKKLSAG [r14_36_TrROS] | 2.2 ± 0.14 kcal/mol | 2.14 ± 0.25 kcal/mol | 2.17 ± 0.2 kcal/mol |
| SAGGSITLPPVELPNGEKVTVTIEITPVPGAPPEERYRVTVTRTNPKTGTTETTELEVTRKGSVVTLESAGG [r13_208_JUSTAS] | 2.16 ± 0.059 kcal/mol | 1.88 ± 0.099 kcal/mol | 1.5 ± 0.022 kcal/mol |
| SAGGNFEIWRHPENGILWIEFRIPAGEPLEIPLKFKAPNGKPIKITKFHIWPMNDWWYIKFIIKIPPSAGGS [r16_499_TrROS] | 3.15 ± 0.12 kcal/mol | 2.99 ± 0.25 kcal/mol | 2.84 ± 0.06 kcal/mol |
| SEKRMEVEIKIPITMVVPKEMFEPDPDNGRYRFPDNGKPIRPNQVHPMPIEIKGPMPPGDAQKLLKDLLKSA [r9_165_TrROS] | -0.347 ± 0.1 kcal/mol | -0.203 ± 0.16 kcal/mol | -0.119 ± 0.11 kcal/mol |
| NPIERLKEAIKNAPPGETADIPFPDGMYININIEPEREKEDGKPRRRRKIKIEIYPPDGKPLGSITLEVPYS [r1_386_TrROS] | 1.49 ± 0.084 kcal/mol | 1.36 ± 0.15 kcal/mol | 1.23 ± 0.11 kcal/mol |
| SAGGSAGGSAGGKGKKVTIEIHFFFKSPQEMKHWANTLAKELPGLDVEIKVEWIPLEDMKSAGGSAGGSAGG [r7_465_TrROS] | 2.06 ± 0.14 kcal/mol | 2.75 ± 0.29 kcal/mol | 3.26 ± 0.14 kcal/mol |
| SAGGSAGGSMVIRVTTKDGEEVELEIEGMSLEEIKALLPEGVKEVKIEKVEVEPVEVEEEEEESAGGSAGGS [r12_767_TrROS_Hall] | 1.31 ± 0.1 kcal/mol | 1.72 ± 0.21 kcal/mol | 1.99 ± 0.27 kcal/mol |
| SAGGSAGGSAGGMPILEIDVAGDSPDIAIETAKAIVDELPTYNPENVKVIIKDGKVIIGSAGGSAGGSAGGS [r10_182_TrMRF] | 0.498 ± 0.018 kcal/mol | 1.25 ± 0.15 kcal/mol | 1.66 ± 0.12 kcal/mol |
| SPKEPQKVRIRIRNPENGKPIWEFDIWFPPDGGVKVKIEHPNEKHEYPMPADEALDFLENHPFKIEEIEVSA [r9_470_TrROS] | 0.739 ± 0.18 kcal/mol | 0.567 ± 0.33 kcal/mol | 0.301 ± 0.2 kcal/mol |
| SAGGSAGGSANGWVFMIHFNIEQEPVPAEELGMPPGDPGYEDMYVIKIKSISFFWVPAGDFSAGGSAGGSAG [r3_488_TrROS] | 3.27 ± 0.09 kcal/mol | 4.38 ± 0.085 kcal/mol | 4.72 ± 0.12 kcal/mol |

| Sequence | folding stability dG unfold [1] | folding stability dG unfold [2] | folding stability dG unfold [3] |
| --- | --- | --- | --- |
| SAGGSAGGSMSVTVVGRVPGLGLVEVVIHRPDEPVVVTVPRSEVEALLAAFPYPDAVVTTRDASAGGSAGGS [r12_23_JUSTAS] | -0.043 ± 0.047 kcal/mol | 0.151 ± 0.056 kcal/mol | 0.205 ± 0.028 kcal/mol |
| SAGGSAGGSAGMEVFKSADGKRLLIRAKNGKVAEFDVETGELKFSKENLSPEDIEIVEVPSAGGSAGGSAGG [r17_174_TrROS_Hall] | 0.385 ± 0.2 kcal/mol | 0.72 ± 0.22 kcal/mol | 1.05 ± 0.14 kcal/mol |
| SAGGLAEEIVEELKERFPGMDVDIDVKEEEDPNNGWVKITIMVRVRNPDDNKPRHEIQLDIEIPVDDSAGGS [r8_207_TrROS] | 1.69 ± 0.056 kcal/mol | 1.82 ± 0.086 kcal/mol | 1.89 ± 0.036 kcal/mol |
| SAGMSLEELAKELAKKLNIEKVEIKYDKETNKVTIKIYFKKNKKKITITIKKENMTPEEIKKLLEEILKSAG [r5_896_TrROS_Hall] | 2.9 ± 0.12 kcal/mol | 4.41 ± 0.19 kcal/mol | 4.51 ± 0.098 kcal/mol |
| SAGGMSSSSYTYTTPLSSLKAAHPDLSEEELLALAKEAAKAALEAEGVPVSSVTATLAPDGTLTIVDSAGGS [r8_368_JUSTAS] | 0.862 ± 0.065 kcal/mol | 0.834 ± 0.14 kcal/mol | 0.634 ± 0.12 kcal/mol |
| SAGGSAGGSAGAVLPIKNGWVAVIHMGPDGRVTINIYPPDKPREIEIPVNEPMEIEIFPWSAGGSAGGSAGG [r11_164_TrROS] | 2.08 ± 0.053 kcal/mol | 1.78 ± 0.091 kcal/mol | 1.3 ± 0.058 kcal/mol |
| SYWIRITINGQTIMFPAEDADKLLGELQSNGWRIKITDIEPDPDDDWIMFKINIRPPKPPPPPPPDPDGKSA [r9_448_TrROS] | 2 ± 0.11 kcal/mol | 3.17 ± 0.34 kcal/mol | 3.47 ± 0.041 kcal/mol |
| SKIKKIKIVKVKPGEEITTPDGRKIKPGDIVIVDEKTNKVYSAEEIKKLLKELEEKLKKLPKKPKPKKKKSA [r9_517_TrROS_Hall] | 0.814 ± 0.07 kcal/mol | 1.49 ± 0.17 kcal/mol | 1.78 ± 0.089 kcal/mol |
| SAGDPDRPLGPVEITVDPEENTLTITFGDLTLTLPLPEGVEATAEVFPDHVVLTVRYPDGTIRTFVFPLSAG [r5_21_TrMRF] | 4.14 ± 0.13 kcal/mol | 5.06 ± 0.16 kcal/mol | 5.09 ± 0.15 kcal/mol |
| SAGGKSISFGKKAGKEKMKEAIKKGLKNIKIVVFKDGKPEVIEVKADDLDKVFDNIPEDSIVVFEPESAGGS [r16_636_TrMRF] | 1.28 ± 0.06 kcal/mol | 2.17 ± 0.17 kcal/mol | 2.19 ± 0.038 kcal/mol |
| SAGGSAGGSGDDIPTLTLVIKVDPNAITPEDIEEIKQAFLDLGYKEVTVTRNPETGYLVVELGSAGGSAGGS [r12_1025_TrMRF] | 3.03 ± 0.25 kcal/mol | 3.01 ± 0.21 kcal/mol | 2.93 ± 0.11 kcal/mol |
| SAGGSAGGSAGGSGQEIPFMLIIKDPDGELDYIIQIEMRRVPNGGVDIEITEIIPAKDISAGGSAGGSAGGS [r4_117_TrROS] | 1.55 ± 0.1 kcal/mol | 1.77 ± 0.1 kcal/mol | 1.76 ± 0.039 kcal/mol |
| SNPDDQKKAKPIEIEIEIDFKPERERDPDGKERPRFEFDIEIKIPPGAPLDMITIYIRFDDWPFMITIPASA [r9_488_TrROS] | 1.8 ± 0.075 kcal/mol | 2.95 ± 0.28 kcal/mol | 3.42 ± 0.15 kcal/mol |
| SAGGSAGMTVTKTFTLPGYKVELTTHPGLPPDAPVTIEVTLTPPDGSVVKSTRTVLARPDDPSVLLSAGGSA [r15_10_JUSTAS] | 2.15 ± 0.13 kcal/mol | 2.46 ± 0.16 kcal/mol | 2.73 ± 0.12 kcal/mol |
| SAGGSAGGSAGGSMITLKIPPSKPEEAEKLAKSLGAELKSFDPNTGVVDINSPPGASLESAGGSAGGSAGGS [r4_3_JUSTAS] | -1.25 ± 0.58 kcal/mol | -0.929 ± 0.23 kcal/mol | -1.35 ± 0.74 kcal/mol |
| SAGGSAGGSAGIRIKAFPGWKIVDIEPNPPGTIIIRYPNWVFQIRIRPNGEIEIRIVPLDSAGGSAGGSAGG [r11_612_TrROS] | 3.09 ± 0.093 kcal/mol | 3.49 ± 0.083 kcal/mol | 3.64 ± 0.055 kcal/mol |
| SAGGDTFLMLHPHPVKDNGKDKPYYHIMVMKITEVEPDNGKPRLKMEMKMIHIPADDPDALKEAGIPISAGG [r13_670_TrROS] | 1.81 ± 0.1 kcal/mol | 1.77 ± 0.16 kcal/mol | 1.52 ± 0.21 kcal/mol |
| SAEIAELLKELGFEVEVEKVEVKEVEVTVTDENGKKYKVKFVEVKITVKVTNPDGSKRTFSLDELKKLLSAG [r14_578_TrROS_Hall] | 2.84 ± 0.14 kcal/mol | 3.45 ± 0.13 kcal/mol | 3.73 ± 0.11 kcal/mol |
| SAGGSAGGSAGGMVLVETEPLPDGGYRVLVVFPGTDEVRELYFSSSTTPEQVLDVVLAESAGGSAGGSAGGS [r10_825_TrMRF] | 2.44 ± 0.059 kcal/mol | 2.34 ± 0.083 kcal/mol | 2.233 ± 0.021 kcal/mol |
| MTVELETTDIEELLARIEEAAAAGKNVTVTAKPEEFEKIRAEGFKIDEILEVKPVPGDDTVVTLINISPEGS [r1_173_JUSTAS] | 1.11 ± 0.038 kcal/mol | 0.897 ± 0.085 kcal/mol | 0.699 ± 0.083 kcal/mol |
| SAGMEEEVEERTLPDGSPVTVTTFTDPATGKRTVFVRYPETGEWEVRDEEGNLIKKYGPVSFEEAKKELSAG [r5_757_JUSTAS] | 1.67 ± 0.024 kcal/mol | 1.97 ± 0.09 kcal/mol | 2.04 ± 0.064 kcal/mol |
